Measurements taken from US20060275823A1.

Molecular target: GG (GST-ICS linker-GFP model substrate for ICE) [GST: P08515]
Test: cell-based or functional assay

- IC50 of inhibition of the cleavage of GG by ICE: 50 to 100 µM
Binder: KARKEAELAAATAEQ [LEPB]
